From patent US7390643B2, “Geranyl diphosphate synthase molecules, and nucleic acid molecules encoding same” (Washington State University Research Foundation, priority 2002, dated 2008)
Entries after “also recorded” stand apart in the source; their conditions may differ.

Assays:
[1] = system: recombinant GPP synthases from grand fir; assay: Kinetic evaluation, standard prenyltransferase assay with purified recombinant His6-tagged GPP synthases; assay type: biochemical, Abies grandis
Procedure: Molecular weight determination and kinetic evaluation. The molecular weight of GPP synthase was determined by gel filtration chromatography on a calibrated XK 16/70 column of Superdex 200 (Amersham Biosciences) as previously described (C. Burke and R. Croteau, J. Biol. Chem. 277:3141-3149, 2002). For kinetic evaluation, the standard prenyltransferase assay was performed (C. Burke and R. Croteau, J. Biol. Chem. 277:3141-3149, 2002) but the reaction was terminated after 4 min. to ensure linearity in the rate measurements. For preparative incubations, the reaction time was extended to 8 min., and all assays contained from 0.25 to 1.0 μg of purified protein.
Kinetic characterization of the GPP synthases (SEQ ID NOS:12, 16, and 20). To compare substrate binding behavior and turnover rates of these grand fir GPP synthases (SEQ ID NOS:12, 16, and 20) to those of the Mentha synthase, kinetic constants were determined (Table 1).

[2] = system: presumptive prenyltransferases (GPP synthases and GGPP synthase) from grand fir; assay: Product determination and co-substrate selectivity assay ([4-14C]IPP plus allylic co-substrate, MgCl2; radio-GC of hydrolysed products); assay type: biochemical, Abies grandis; conditions: for product formed: radio-GC; for rate with GPP as allylic co-substrate in the production of FPP, relative to the rate with DMAPP: standard assay conditions
Text: Protein purification and product determination. The affinity-based purification procedure for His-tagged proteins has been described previously, as has the standard purification protocol for the corresponding non-tagged proteins (C. Burke and R. Croteau, J. Biol. Chem.277:3141-3149, 2002). The partial purification procedure for the native GPP synthase from A. grandis has also been reported previously (D. Tholl et al., Arch. Biochem. Biophys. 386:233-242, 2001). Procedures for polyclonal antibody preparation were as described previously (C. C. Burke et al., Proc. Natl. Acad. Sci. USA 96:13062-13067, 1999), in this case using the SDS-PAGE purified AgGPPS3 protein (SEQ ID NO:7) as antigen. The assay procedures and methods for product analysis were similar to those previously described (C. Burke and R. Croteau, J. Biol. Chem. 277:3141-3149, 2002), except that for radio-GC a Raga (Raytest) radio-detector connected in-line to a Series 600 (Gow-Mac) chromatograph was employed with a 5% phenyl polysiloxane (ZB-5; Phenomenex) capillary column under hydrogen gas flow (70° C. for 5 min. followed by an 8° C. per min. ramp to 240° C. for 5 min).
As might be expected based on prior experience, the full-length (preprotein) versions of these enzymes (SEQ ID NOS:3, 5, 7 and 22) were not efficiently expressed in soluble form and the bulk of the protein generated was in inclusion bodies. However, the truncated versions of these enzymes with the appended C-terminal His6-tag (SEQ ID NOS:12, 16, 20 and 26) readily afforded soluble protein that was affinity purified to >90% in amounts up to 6 mg/L. To define the function of these presumptive prenyltransferases, assays were conducted with the purified proteins (SEQ ID NOS:12, 16, 20 and 26) using [4-^14C]IPP and DMAPP as co-substrates and MgCl2 as cofactor. The resulting products were enzymatically hydrolyzed to the corresponding alcohols and analyzed by radio-GC. […] His-tagged AgGPPS1 (SEQ ID NO:16) and AgGPPS3 (SEQ ID NO:20) were able to accept GPP as the allylic co-substrate (110% the rate with DMAPP under standard assay conditions) in the production of FPP, and His-tagged AgGPPS3 (SEQ ID NO:20) could also efficiently utilize FPP as allylic co-substrate in the formation of GGPP (at about 50% the rate with DMAPP as co-substrate).

[3] = [4-14C]IPP and DMAPP as co-substrates, MgCl2 as cofactor

B1: AgGPPS1: recombinant geranyl diphosphate synthase from Grand fir (Abies grandis), truncated, His6-tagged, SEQ ID NO:16 (protein)
chain: MFDFKEYLHSKAISVNEALERAVPLRYPEKIHEAMRYSLLAGGKRIRPILTIAACELVGGSEELAMPTACAMEMIHTMSLIHDDLPSMDNDDLRRGKLTNHKVFGEGTAVLAGDALLSFAFEHIAVSTRKTVASHRVLRVVSELGKAIGSQGVAGGQVADITSEGDPSVGLETLEWIHIHKTAVLLECAVVSGAIIGGASENEIERTGRYARCVGLLFQVVDDILDVTRSSEELGKTAGKDLVSDKATYPKLMGLEKAKEFADELLDRAKEELSCFNPAKAAPLLGLADYIALRQNLEHHHHHH
modifications: His6 tag; Abies Grandis
With B1 the “KM(DMAPP) compared with the Mentha enzyme” value [1] was “two-fold higher”, the “turnover rate compared with AgGPPS3” value [1] was “four fold higher” and the product formed [2, 3] was “geranyl diphosphate as the major product”. For the same molecule, the “rate with GPP as allylic co-substrate in the production of FPP, relative to the rate with DMAPP” value [2] was 110%.

B2: GGPPS: recombinant geranylgeranyl diphosphate synthase from grand fir, truncated, His6-tagged, SEQ ID NO:26 (protein)
chain: MFDFKEYLRSKAMAVNEALDRAVPLRYPERIHEAMRYSLLAGGKRVRPVLCISACELVGGTEEVAMPTACAMEMIHTMSLIHDDLPCMDNDDFRRGKPTNHKVFGEGTAILAGDALLSFAFEHIAVSTSKSVGTDRILRVVSELGRTIGSQGLVGGQVADITSEGDASVDLDTLEWIHIHKTAVLLECSVMCGAIISGASDNEIERIQRYARSVGLLFQVVDDILDVTKSSKELGKTAGKDLISDKATYPKLMGLEKAKQFASDLLIRAKEDLSCFDPMKAAPLLGLADYIAFRQNLEHHHHHH
modifications: His6 tag; Abies Grandis
In the case of B2, the product formed [2, 3] is reported as “predominately geranylgeranyl diphosphate as product with trace amounts of geranyl diphosphate”.

B3: AgGPPS2: recombinant geranyl diphosphate synthase from Grand fir (Abies grandis), truncated, His6-tagged, SEQ ID NO:12 (protein)
chain: MFDFNKYMDSKAMTVNEALNKAIPLRYPQKIYESMRYSLLAGGKRVRPVLCIAACELVGGTEELAIPTACAIEMIHTMSLMHDDLPCIDNDDLRRGKPTNHKIFGEDTAVTAGNALHSYAFEHIAVSTSKTVGADRILRMVSELGRATGSEGVMGGQMVDIASEGDPSIDLQTLEWIHIHKTAMLLECSVVCGAIIGGASEIVIERARRYARCVGLLFQVVDDILDVTKSSDELGKTAGKDLISDKATYPKLMGLEKAKEFSDELLNRAKGELSCFDPVKAAPLLGLADYVAFRQNLEHHHHHH
modifications: His6 tag; Abies Grandis
B3 was tested, and the “turnover rate compared with AgGPPS3” value [1] was “four fold higher”, the “turnover rate compared with the heterotetrameric Mentha GPP synthase” value [1] was “three-fold lower” and the allylic co-substrate utilised [2] was “only DMAPP”. The product formed [2, 3] was “geranyl diphosphate as the major product; also recorded: only GPP”.

B4: AgGPPS3: recombinant geranyl diphosphate synthase from Grand fir (Abies grandis), truncated, His6-tagged, SEQ ID NO:20 (protein)
chain: MFDFNKYMLSKAMAVTEALDKAIPHSYPQKIHESMRYSLLAGGKRVRPVLCIAACELVGGREELAMPTACAMEMIHTMSLIHDDLPCMDNDDLRRGKPTNHKVFGQDTALLAGDALHAFAFEHIVAFTSKSVGSDGILRAVTELARATGPQGIMGGQIVDIASERDAFVDLQTLEWIHIHKTAVLFECATVCGAIIGGASGDEIERIRRFARYLGLLFQVVDDILDVTKSSEDLGKTAGKDLVSDKATYPKLMGLEKAKGFSLELLNKAKEELSCFDPMKAAPLFGLADYMALRQNLEHHHHHH
modifications: His6 tag; Abies Grandis
With B4 the “rate with FPP as allylic co-substrate in the formation of GGPP, relative to the rate with DMAPP” value [2] was “about 50%”, the farnesyl diphosphate produced [2, 3] was “about 30%” and the product formed [2, 3] was “geranyl diphosphate as the major product”. The “rate with GPP as allylic co-substrate in the production of FPP, relative to the rate with DMAPP” value [2] was 110%.
